This note sets out measurements from patent publication US20020052480A1.

Test [1] has as its target human fibroblast activation protein alpha (FAP), on the cell surface (HT-1080FAP clone 33, 293FAP I/2, MF-SH cells, tumor stromal fibroblasts) (human) (UniProt Q12884). The experiment in a line: flow cytometry, MF-SH cells (endogenous FAP), antibody at 4,000 ng/ml.
Test [2] shares this target. The experiment in a line: flow cytometry, HT-1080FAP clone 33 cells, antibody at 20 ng/ml, anti-human IgG FITC.
Test [3] shares this target. As to the kind of experiment: flow cytometry, HT-1080FAP clone 33 cells, antibody at 0.8 ng/ml, anti-human IgG FITC.
For test [4] the target is unchanged. The experiment in a line: flow cytometry, HT-1080FAP clone 33 cells, antibody at 100 ng/ml, anti-human IgG FITC.
The target is the same in test [5]. The experiment in a line: flow cytometry, HT-1080FAP clone 33 cells, antibody at 4.0 ng/ml, anti-human IgG FITC.
For test [6] the target is unchanged. The experiment in a line: flow cytometry, HT-1080FAP clone 33 cells, antibody at 500 ng/ml, anti-human IgG FITC.
For test [7] the target is unchanged. The experiment in a line: flow cytometry, HT-1080FAP clone 33 cells, biotinylated antibody at 1.6 ng/ml, streptavidin-FITC.
For test [8] the target is unchanged. The experiment in a line: flow cytometry, HT-1080FAP clone 33 cells, biotinylated antibody at 8.0 ng/ml, streptavidin-FITC.
Test [9] has the same target. The experiment in a line: flow cytometry, HT-1080FAP clone 33 cells, biotinylated antibody at 40.0 ng/ml, streptavidin-FITC.
The target is the same in test [10]. As to the kind of experiment: flow cytometry, HT-1080FAP clone 33 cells, biotinylated antibody at 200.0 ng/ml, streptavidin-FITC.
Test [11] shares this target. The experiment in a line: flow cytometry, HT-1080FAP clone 33 cells, biotinylated antibody at 1,000.0 ng/ml, streptavidin-FITC.
The target is the same in test [12]. As to the kind of experiment: flow cytometry, HT-1080FAP clone 33 cells, biotinylated antibody at 5,000.0 ng/ml, streptavidin-FITC.
For test [13] the target is unchanged. The experiment in a line: flow cytometry competition against 1 µg/ml biotinylated cF19 on HT-1080FAP clone 33 cells; competitor at 1.00 µg/ml.
Test [14] shares this target. As to the kind of experiment: flow cytometry competition against 1 µg/ml biotinylated cF19 on HT-1080FAP clone 33 cells; competitor at 3.16 µg/ml.
Test [15] has the same target. As to the kind of experiment: flow cytometry competition against 1 µg/ml biotinylated cF19 on HT-1080FAP clone 33 cells; competitor at 10.00 µg/ml.
Test [16] has the same target. As to the kind of experiment: flow cytometry competition against 1 µg/ml biotinylated cF19 on HT-1080FAP clone 33 cells; competitor at 31.66 µg/ml.

Sequence of UniProt Q12884 (Q12884 whole entry): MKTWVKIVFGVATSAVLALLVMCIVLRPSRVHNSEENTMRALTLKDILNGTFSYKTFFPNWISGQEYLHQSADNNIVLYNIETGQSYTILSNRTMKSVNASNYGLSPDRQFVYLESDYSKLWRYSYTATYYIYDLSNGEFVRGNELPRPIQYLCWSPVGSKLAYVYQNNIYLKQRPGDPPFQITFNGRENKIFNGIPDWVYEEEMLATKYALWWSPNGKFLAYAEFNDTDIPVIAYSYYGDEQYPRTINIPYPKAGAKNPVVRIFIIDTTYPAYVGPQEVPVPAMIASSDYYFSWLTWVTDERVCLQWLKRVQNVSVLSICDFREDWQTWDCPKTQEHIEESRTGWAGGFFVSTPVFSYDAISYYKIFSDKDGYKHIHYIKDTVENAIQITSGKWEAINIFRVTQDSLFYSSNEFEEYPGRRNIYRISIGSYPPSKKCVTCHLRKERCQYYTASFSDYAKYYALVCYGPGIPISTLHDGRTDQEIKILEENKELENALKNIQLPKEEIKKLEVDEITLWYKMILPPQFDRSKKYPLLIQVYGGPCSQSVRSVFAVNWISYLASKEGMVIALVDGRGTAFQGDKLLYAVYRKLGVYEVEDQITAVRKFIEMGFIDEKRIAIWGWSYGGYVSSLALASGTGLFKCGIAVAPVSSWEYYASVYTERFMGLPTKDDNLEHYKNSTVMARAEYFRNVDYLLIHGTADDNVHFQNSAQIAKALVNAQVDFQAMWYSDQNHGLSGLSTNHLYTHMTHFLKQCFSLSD

Turning to “hIgG1 (human immunoglobulin, IgG1 subclass), isotype control (antibody)”, the Mean fluorescence intensity in test [1] is 0.6; in test [2], 0.12; in test [3], 0.12; in test [4], 0.12; in test [5], 0.12; in test [6] it was 0.12. Moreover, the Mean fluorescence intensity in test [7] amounted to 0.3; in test [8], 0.2; in [9], 0.2; in [10], 0.2; in test [11], 0.2; in test [12], 0.2. The Mean fluorescence concentration was 9 in [13], 11.3 in test [14], 9.8 in test [15] and 10.3 in test [16].
